From PMC3025952, “Characterization of a core fragment of the rhesus monkey TRIM5α protein” (BMC Biochemistry, 2011)

B1: BCCL2 protein, wild-type (B-box 2, coiled coil and linker 2 region of rhesus monkey TRIM5α), His6-tagged, from E. coli (domain or fragment)
chain: GSGLVPRGSASMSDSEVNQEAKPEVKLSPEEGQKVDHCARHGEKLLLFCQEDSKVICWLCERSQEHRGHHTFLMEEVAQEYHVKLQTALEMLRQKQQEAEKLEADIREEKASWKIQIDYDKTNVSADFEQLREILDWEESNELQNLEKEEEDILKSLTKSETEMVQQTQYMRELISELEHRLQGSMMDLLQGVDGIIKRIENMTLKKPKTFHKNQRRVFRAPDLKGMLDMFRELTDA
notes: vector-derived spacer between the His6 tag and E83 of TRIM5αrh; Predicted molecular weight with tag and spacer 29.026 kD; also called wild-type (wt); core fragment of TRIM5αrh; source: E. coli BL21(DE3)pLysS, purified (Ni-NTA, SEC, anion exchange); not shown: His6, N-terminal, kept
B2: BCCL2 LLER protein (L105E, L106E, E120R, R121E), His6-tagged, from E. coli (domain or fragment, rhesus monkey)
chain: GSGLVPRGSASMSDSEVNQEAKPEVKLSPEEGQKVDHCARHGEKLEEFCQEDSKVICWLCRESQEHRGHHTFLMEEVAQEYHVKLQTALEMLRQKQQEAEKLEADIREEKASWKIQIDYDKTNVSADFEQLREILDWEESNELQNLEKEEEDILKSLTKSETEMVQQTQYMRELISELEHRLQGSMMDLLQGVDGIIKRIENMTLKKPKTFHKNQRRVFRAPDLKGMLDMFRELTDA
notes: vector-derived spacer between the His6 tag and E83 of TRIM5αrh; also called LLER variant; source: E. coli BL21(DE3)pLysS, purified (Ni-NTA, anion exchange, SEC); not shown: His6, N-terminal, kept

Experiments:
[1] = biological target: the molecule itself; assay: SEC; Superdex 200 (10/30) column calibrated with globular molecular-weight markers, PBS; for LLER also with 25 μM ZnCl2 and DTT (profile not significantly affected)
[2] = biological target: the molecule itself; assay: SEC-MALS; SEC-LS: about 300 μg LLER on Superose 6 HR 10/30 with in-line Dawn EOS light scattering, refractometer and UV detector
[3] = biological target: the molecule itself; assay: single-particle cryo-electron microscopy; peak 1 and peak 2 gel-filtration fractions of LLER; peak 2 also incubated with an anti-His6 antibody to count the tags in a particle

Protein	binding result [1]	stoichiometry N [2]	stoichiometry N [3]
B1	binds	–	–
B2	–	2	≥ 2
